Results on 1 substance are retold here after paper PMC11218540, “Influence of PepF peptidase and sporulation on microcin J25 production in Bacillus subtilis” (Microbiology Spectrum, 2024).

Bridges are numbered along the chain shown (N, C = ends). Where no end group is shown, it is not given here.

The target of series [1] is PepA (Bacillus subtilis, UniProt O32106). Particulars: 8 hours at 37°C, data not shown. The protocol: (§1) To examine the degradation effect of these three peptidases on the lasso peptide MccJ25, we performed the enzymatic (proteolytic treatment) reaction of MccJ25 with each peptidase enzyme for 8 hours at 37°C and measured the antibacterial activity and concentration of MccJ25 in the incubation products.
(§2) To investigate whether B. subtilis peptidases play an inhibitory role in the maturation of MccJ25, we synthesized a linear peptide chain consisting of 21 amino acid residues for mimicking the MccJ25 precursor peptide. The linear peptide was incubated with PepA, PepF, and PepT, and the effects of degradation of these three peptidases on the MccJ25 precursor peptide were determined.
(§3) The MccJ25 lasso peptide was obtained by a reverse-phase solid-phase extraction method, as described in previous studies ([15]). The MccJ25 lasso peptide was examined by antimicrobial activity analysis and UPLC-QqQ mass spectrometry analysis. The antibacterial activity analysis method and UPLC-QqQ mass spectrometry analysis process for MccJ25 have been described in detail in our previous articles ([21]). […] Quantitative analysis of the MccJ25 linear/lasso peptide was performed by ultra-performance liquid chromatography coupled with triple quadrupole mass spectrometry (UPLC-QqQ, Agilent Co., USA) in the positive ion mode. All original images of SDS-PAGE and spot-on-lawn were cropped and brightness adjusted using Fireworks software (Vesion CS 6, Adobe Systems Incorporated).
(§4) The strains BL21A (BL21-DE3, pET28a-PepA), BL21F (BL21-DE3, pET28a-PepF), and BL21T (BL21-DE3, pET28a-PepT) were used to produce the peptidases PepA, PepF, and PepT, respectively, and BL21O (BL21-DE3, pET28a+) was used as a control strain. […] L-leucine-p-nitroanilide was used as the standard chromogenic substrate for aminopeptidases to identify whether these three peptidases are aminopeptidases in B. subtilis. The mixture of peptidase (10%) and L-leucine-p- nitroanilide (1 mM) was reacted in Tris-HCl buffer solution at pH = 8.5 and 50°C for 10 minutes.

The target in series [2] is T1, PepF (Bacillus subtilis, UniProt O31605).
T1 sequence (O31605 whole entry, looked up): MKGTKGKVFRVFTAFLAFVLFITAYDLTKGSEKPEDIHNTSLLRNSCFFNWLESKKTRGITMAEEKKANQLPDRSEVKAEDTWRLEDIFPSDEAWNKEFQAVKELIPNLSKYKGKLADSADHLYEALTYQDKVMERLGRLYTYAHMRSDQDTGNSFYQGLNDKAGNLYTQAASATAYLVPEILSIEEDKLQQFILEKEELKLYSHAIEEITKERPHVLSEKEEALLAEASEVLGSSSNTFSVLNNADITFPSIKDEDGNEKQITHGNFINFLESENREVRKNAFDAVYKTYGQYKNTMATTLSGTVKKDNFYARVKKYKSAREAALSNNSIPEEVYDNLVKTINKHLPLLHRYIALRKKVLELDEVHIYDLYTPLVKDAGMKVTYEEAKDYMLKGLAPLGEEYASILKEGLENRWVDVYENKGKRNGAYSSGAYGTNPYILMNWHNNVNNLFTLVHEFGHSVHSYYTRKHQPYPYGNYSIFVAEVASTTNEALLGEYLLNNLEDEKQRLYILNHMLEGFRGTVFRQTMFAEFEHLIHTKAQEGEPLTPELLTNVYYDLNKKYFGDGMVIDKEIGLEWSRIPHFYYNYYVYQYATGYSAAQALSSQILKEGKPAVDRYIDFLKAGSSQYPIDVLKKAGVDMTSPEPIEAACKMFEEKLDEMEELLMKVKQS
The note with it: mature lasso peptide incubated with purified PepF 8 hours at 37°C, compared with non-peptidase-treated. The protocol: as §1, §2, §3, §4

Series [3] addresses PepT (Bacillus subtilis, UniProt P55179). Particulars: 8 hours at 37°C, data not shown. The protocol: as §1, §2, §3, §4
For series [4] the following is noted: at the highest concentration required to inhibit bacterial growth; cited from earlier work. The source says:
Microcins are antimicrobial peptides synthesized by ribosomes and are produced by some Enterobacteriaceae species under the condition of nutrient depletion to kill or inhibit neighboring competitors ([1], [2]). Microcins are divided into two categories, namely, class I and class II, according to their molecular masses. Class I microcins have mass less than 5 kDa, while that of class II microcins is between 5 and 10 kDa ([1]). Microcin J25 (MccJ25) is a class I microcin with a unique lasso-like structure ([3][–][5]) that inhibits or kills target bacteria (primarily Gram-negative Enterobacteriac ...

In series [5] the test system is proteases (including peptidases). The note with it: cited from earlier work. The source says:
Peptidases are important tools in the growth and metabolism of various organisms, including B. subtilis, and they are classified as exopeptidases and endopeptidases depending on the position of peptide bond cleavage ([22]). Different classes of peptidases are associated with important biological pathways. Based on similarity, PepA (yuiE) is predicted to be an aminopeptidase in B. subtilis, but its exact function has not been studied. In E. coli, PepA is a well-defined leucyl aminopeptidase with cysteinyl–glycinase activity, which involves glutathione turnover ([23]). Since glutathione is absen ...

Where [6] appears, read: spot-on-lawn assay, S. enteritidis CVCC3377.

Chain of PepA (O32106 whole entry): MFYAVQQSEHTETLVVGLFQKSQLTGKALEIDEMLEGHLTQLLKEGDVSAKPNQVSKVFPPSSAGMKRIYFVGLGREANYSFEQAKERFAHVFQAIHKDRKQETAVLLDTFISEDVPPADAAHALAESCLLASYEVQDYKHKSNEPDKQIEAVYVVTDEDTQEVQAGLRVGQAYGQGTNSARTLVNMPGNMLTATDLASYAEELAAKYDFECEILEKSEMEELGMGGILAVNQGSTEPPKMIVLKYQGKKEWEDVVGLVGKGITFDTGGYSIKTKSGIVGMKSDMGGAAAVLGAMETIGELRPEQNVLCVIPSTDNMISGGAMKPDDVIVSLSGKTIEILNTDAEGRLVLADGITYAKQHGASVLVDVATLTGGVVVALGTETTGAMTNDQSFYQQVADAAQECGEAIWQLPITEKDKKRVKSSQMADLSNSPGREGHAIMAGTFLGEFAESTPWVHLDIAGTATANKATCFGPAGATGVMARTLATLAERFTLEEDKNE
Chain of PepT (P55179 whole entry): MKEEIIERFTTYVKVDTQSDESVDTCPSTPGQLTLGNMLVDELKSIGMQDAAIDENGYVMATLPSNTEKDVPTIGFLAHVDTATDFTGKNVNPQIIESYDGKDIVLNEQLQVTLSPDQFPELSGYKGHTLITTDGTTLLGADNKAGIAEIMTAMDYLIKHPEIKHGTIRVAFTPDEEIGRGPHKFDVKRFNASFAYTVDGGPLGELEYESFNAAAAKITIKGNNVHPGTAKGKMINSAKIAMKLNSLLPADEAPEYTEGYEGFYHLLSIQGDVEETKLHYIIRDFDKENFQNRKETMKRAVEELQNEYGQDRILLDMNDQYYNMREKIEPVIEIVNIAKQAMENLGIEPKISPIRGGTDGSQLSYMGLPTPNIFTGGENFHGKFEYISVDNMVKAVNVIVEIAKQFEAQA

Take “microcin J25 (GGAGHVPEYFVGIGTPISFYG; lactam N-8 (inferred); UniProt Q9X2V7 38-58, looked up) [MccJ25, lasso peptide, class I microcin of 21 amino acid residues: eight-residue cycle and thirteen-residue tail threading through the macrolactam ring]”: in series [1] (UPLC-QqQ-MS), the “concentration of mature MccJ25 after treatment with PepA” value is “remained unchanged”. Besides, the “antibacterial activity of mature MccJ25 after treatment with PepA” value in series [1] (setting [6]) is given as “remained unchanged”. The “concentration of MccJ25 after treatment with PepF” value in series [2] (UPLC-QqQ-MS) is “unchanged”. Moreover, the “antibacterial activity of MccJ25 after treatment with PepF” value in series [2] (spot-on-lawn assay, indicator S. enteritidis CVCC3377) is “unchanged”. Further, in series [3] (UPLC-QqQ-MS), the “concentration of mature MccJ25 after treatment with PepT” value was “remained unchanged”. Besides, the “antibacterial activity of mature MccJ25 after treatment with PepT” value in series [3] (setting [6]) is listed as “remained unchanged”. The toxicity and hemolysis entry in series [4] is reported as “neither toxic nor hemolytic”. Moreover, in series [5], the “resistance to proteases (including peptidases)” value is “high resistance”.
